Reference: patent publication US20090186415A1, “METHOD FOR PRODUCTION OF CYTOCHROME P450 WITH N-TERMINAL TRUNCATED P450 REDUCTASE” (priority 2006, published 2009)

T1: human CYP1B1 (Homo sapiens, UniProt Q16678)
T1 construct: made in house; host or cells: Saccharomyces cerevisiae JL20 / W303B and derived strains; microsomes
T1 sequence (Q16678 with tags, fused parts or gaps): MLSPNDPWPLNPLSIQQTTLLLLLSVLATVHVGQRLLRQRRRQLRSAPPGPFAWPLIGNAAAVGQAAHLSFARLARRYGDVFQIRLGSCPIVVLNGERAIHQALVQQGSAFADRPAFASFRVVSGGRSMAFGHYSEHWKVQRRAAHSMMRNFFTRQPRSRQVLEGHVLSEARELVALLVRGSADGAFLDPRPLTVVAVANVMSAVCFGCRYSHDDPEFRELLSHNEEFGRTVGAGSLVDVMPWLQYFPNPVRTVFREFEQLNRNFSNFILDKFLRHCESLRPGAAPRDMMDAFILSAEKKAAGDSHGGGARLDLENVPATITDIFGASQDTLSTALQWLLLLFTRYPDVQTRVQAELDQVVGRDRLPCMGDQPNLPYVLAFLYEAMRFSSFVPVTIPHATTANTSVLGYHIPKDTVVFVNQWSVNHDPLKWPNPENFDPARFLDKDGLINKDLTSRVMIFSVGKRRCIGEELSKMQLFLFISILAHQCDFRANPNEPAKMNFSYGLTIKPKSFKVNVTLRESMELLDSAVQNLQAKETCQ

B1: ΔN24hRD-cmyc: human P450 reductase lacking N-terminal 24 amino acids, with C-terminal c-myc epitope tag (SEQ ID NO: 27) (protein)
chain: MTDMILFSLIVGLLTYWFLFRKKKEEVPEFTKIQTLTSSVRESSFVEKMKKTGRNIIVFYGSQTGTAEEFANRLSKDAHRYGMRGMSADPEEYDLADLSSLPEIDNALVVFCMATYGEGDPTDNAQDFYDWLQETDVDLSGVKFAVFGLGNKTYEHFNAMGKYVDKRLEQLGAQRIFELGLGDDDGNLEEDFITWREQFWPAVCEHFGVEATGEESSIRQYELVVHTDIDAAKVYMGEMGRLKSYENQKPPFDAKNPFLAAVTTNRKLNQGTERHLMHLELDISDSKIRYESGDHVAVYPANDSALVNQLGKILGADLDVVMSLNNLDEESNKKHPFPCPTSYRTALTYYLDITNPPRTNVLYELAQYASEPSEQELLRKMASSSGEGKELYLSWVVEARRHILAILQDCPSLRPPIDHLCELLPRLQARYYSIASSSKVHPNSVHICAVVVEYETKAGRINKGVATNWLRAKEPVGENGGRALVPMFVRKSQLRLPFKATTPVIMVGPGTGWHPFIGFIQERAWLRQQGKEVGETLLYYGCRRSDEDYLYREELAQFHRDGALTQLNVAFSREQSHKVYVQHLLKQDREHLWKLIEGGAHIYVCGDARNMARDVQNTFYDIVAELGAMEHAQAVDYIKKLMTKGRYSLDVWSSSEQKLISEEDLNGSRL
modifications: C-terminal c-myc tag; /note = delta-N24hRD-cmyc tag human P450 reductase
B2: ΔN24hRD: human P450 reductase variant lacking the charged N-terminal 24 amino acids (SEQ ID NO: 26) (protein)
chain: MTDMILFSLIVGLLTYWFLFRKKKEEVPEFTKIQTLTSSVRESSFVEKMKKTGRNIIVFYGSQTGTAEEFANRLSKDAHRYGMRGMSADPEEYDLADLSSLPEIDNALVVFCMATYGEGDPTDNAQDFYDWLQETDVDLSGVKFAVFGLGNKTYEHFNAMGKYVDKRLEQLGAQRIFELGLGDDDGNLEEDFITWREQFWPAVCEHFGVEATGEESSIRQYELVVHTDIDAAKVYMGEMGRLKSYENQKPPFDAKNPFLAAVTTNRKLNQGTERHLMHLELDISDSKIRYESGDHVAVYPANDSALVNQLGKILGADLDVVMSLNNLDEESNKKHPFPCPTSYRTALTYYLDITNPPRTNVLYELAQYASEPSEQELLRKMASSSGEGKELYLSWVVEARRHILAILQDCPSLRPPIDHLCELLPRLQARYYSIASSSKVHPNSVHICAVVVEYETKAGRINKGVATNWLRAKEPVGENGGRALVPMFVRKSQLRLPFKATTPVIMVGPGTGWHPFIGFIQERAWLRQQGKEVGETLLYYGCRRSDEDYLYREELAQFHRDGALTQLNVAFSREQSHKVYVQHLLKQDREHLWKLIEGGAHIYVCGDARNMARDVQNTFYDIVAELGAMEHAQAVDYIKKLMTKGRYSLDVWS
modifications: /note = delta-N24hRD human P450 reductase
B3: 675 bp GAL1p: truncated 675 bp yeast GAL1 promoter (SEQ ID No. 2) (nucleic acid)
DNA: CTTGAATTTTCAAAAATTCTTACTTTTTTTTTGGATGGACGCAAAGAAGTTTAATAATCATATTACATGGCATTACCACCATATACATATCCATATACATATCCATATCTAATCTTACTTATATGTTGTGGAAATGTAAAGAGCCCCATTATCTTAGCCTAAAAAAACCTTCTCTTTGGAACTTTCAGTAATACGCTTAACTGCTCATTGCTATATTGAAGTACGGATTAGAAGCCGCCGAGCGGGTGACAGCCCTCCGAAGGAAGACTCTCCTCCGTGCGTCCTCGTCTTCACCGGTCGCGTTCCTGAAACGCAGATGTGCCTCGCGCCGCACTGCTCCGAACAATAAAGATTCTACAATACTAGCTTTTATGGTTATGAAGAGGAAAAATTGGCAGTAACCTGGCCCCACAAACCTTCAAATGAACGAATCAAATTAACAACCATAGGATGATAATGCGATTAGTTTTTTAGCCTTATTTCTGGGGTAATTAATCAGCGAAGCGATGATTTTTGATCTATTAACAGATATATAAATGCAAAAACTGCATAACCACTTTAACTAATACTTTCAACATTTTCGGTTTGTATTACTTCTTATTCAAATGTAATAAAAGTATCAACAAAAAATTGTTAATATACCTCTATACTTTAACGTCAAGGAGAAAAAACCCC
modifications: /note = Positive strand of the 675 bp GAL1 promoter

Key:
[1] = test system: human NADPH P450 reductase; test: MTT-based cytochrome P450 reductase assay, hRD variants in yeast microsomes and cytosolic fractions; type: biochemical; conditions: for microsome bound reductase activity: microsomes; for microsome bound reductase activity / cytosolic reductase activity: LEU2 locus of W303B; for cytosolic reductase activity: soluble cytosolic fraction
Protocol: Microsomes from the different yeast strains were prepared as described in Example 1.15. About 100 μg of microsomes, as measured by the Bio-Rad Bradford assay, were used and the increase in MTT reductase activity was followed over a time period of 400 seconds.
The different yeast strains were grown up in YPGE medium as described in Example 1.15. The cells were harvested and centrifuged to a pellet. 10% of cell pellets were re-suspended in 1 ml of buffer B (10 mM Tris-Cl pH7.5, 2 M Sorbitol, 0.1 mM EDTA pH8.0, 1 mM Pefabloc, 0.1 mM DTT) and re-suspended cells were treated with lyticase (3-5 units/O.D. of cells; 2200 units/mg; Sigma) for about an hour. The yeast cell wall was enzymatically removed using lyticase, the pellets were centrifuged and washed twice with ice cold PBS, finally re-suspended in 1 ml PBS. About 0.5 ml of glass beads were added to the suspension and the cells were vortexed three times with a 5 min interval on ice after each vortexing. The cells lysates were directly used for the MTT-based reductase assay. Equal amount of cells lysates (100 μg, as measured by the Bio-Rad Bradford assay) were used and the increase in MTT reductase activity was followed, as above, over a time period of 400 seconds.
The enzyme NADPH-cytochrome P450 reductase mediates the transfer of electrons from NADPH to cytochrome P450, other microsomal proteins and cytochrome c. It also catalyzes the reduction of many drugs and other compounds such as potassium ferricyanide, 2,6-dichloroindopheonl, 1,1-diphenyl-2-picrylhydrazyl (DPPH), and mitomycin c. Tetrazolium salts are used extensively in cell proliferation and cytotoxicity assays, enzyme assays, histochemical procedures and bacteriological screening. […] The compound 3-(4,5-dimethylthiazol-2-yl)-2,5-diphenyltetrazolium bromide (MTT) is a monotetrazolium salt. The reduction of MTT is one of the most frequently used methods for measuring cell proliferation and cytotoxiciy. Reduction of MTT by P450 reductase has been assessed as a method for monitoring yeast produced recombinant P450 reductase activity and the protocol was developed on the procedure published by Yim S-K, et al (Yim S-K., Y. C.-H. Ahn T., Hung H—C and Pan J-G. A continuous Spectrophotometric assay for NADPH-cytochrome P450 reductase activity using 3-(4,5 Dimethylthiazol-2-yl)-2,5-diphenyltetrazolium Bromide. Journal of Biology and Molecular Biology 38: 366-369, 2005). The principal advantage of this substance is that the reduction of MTT can be assayed directly in the reaction medium by a continuous spectrophotometirc method. The electrons released from NADPH by P450 reductase are transferred to MTT, and then the amounts of reduced MTT is assessed spectrophotometrically by measuring the increase in A610 values that is due to the formation of blue formazan. The extinction coefficient of MTT is 11.3 mM^−1 cm^−1. This method offers the advantages of short analysis time with the use of a relatively cheap commercial substrate. The classical assay uses recombinant cytochrome c as a substrate.
Disposable cuvettes were used for this experiment. 850 μl of potassium phosphate buffer was added to a cuvette. […] The cuvette was quickly placed into the spectrophotometer together with the blank cuvette and its contents (that contained all components as in the other test cuvette but not the microsomes or cell supernatant) and the increase in the values at 610 nm was measured for a time period of 400 seconds. […]

human CYP1B1 = target: T1, human CYP1B1; test: Determination of P450 amounts via CO-difference spectra (CYP1B1 in yeast microsomes); conditions: strains JL20 and W303B with only endogenous yeast P450 reductase, average of 3 observations
Protocol: Determination of P450 amounts via CO-difference spectra: Difference spectra of microsomal preparations were measured in a spectrophotometer (Lambda 16, Perkin Elmer) using plastic disposable cuvettes. 850 μl of a solution containing 100 mM potassium phosphate and 20% glycerol (pH7.5) was added to the cuvette, and left for one minute. Then a ‘few grains’ of sodium hydrosulfite was added, mixed gently to prevent any bubble forming in the cuvette and left for another minute. 150 μl of mirosomes were added into the cuvette and the whole suspension was mixed gently. Two cuvettes (one containing sodium hydrosulphite without microsome and the other with microsome) were prepared and a baseline of light absorption of the buffer and microsome mixture was recorded in the dual-beam spectrophotometer from 400 nm to 500 nm. Carbon monoxide was bubbled slowly into one sample cuvette for about one minute, 1 bubble/second. Light absorption was recorded again from 400 nm to 500 nm. The concentration of cytochrome P450 in the cuvette was calculated from the absorption change at 450 nm relative to the absorbance change at 490 nm, using the formula below: […]

Row | Molecule | P450 reductase activity (MTT reduction) ([1]; microsomal and soluble (cytosolic) fractions, hRD variants in W303B) | microsome bound reductase activity [1] | cytosolic reductase activity [1] | Expression of CYP1B1 (amounts of P450 produced) from GAL promoter variants (human CYP1B1) | Expression of CYP1B1 (amounts of P450 produced) from GAL promoter variants (human CYP1B1; listed as 675 bp GAL1 promoter)
1 | B1 | much more potent in reductase activity than ΔN24hRD | superior in its reductase activity than the wild type full-length protein | also higher |  | 
2 | B2 |  | minimal | most of the activity of ΔN24hRD exists in the soluble cytosolic part of the cell |  | 
3 | B3 |  |  |  | the best | the best expression
